Read-outs that look alike come from different tables or passages of the source.

Broadly, the Kd is the equilibrium constant for the complex coming apart. A low value points to higher affinity. In general, koff refers to the rate constant with which the complex falls apart. Low readings indicate a long-lived complex, high ones a short-lived complex. By kon is commonly meant a measure of how fast the partners come together. Higher therefore signals faster complex formation.

In assay [1] the target is T1, human FcγRIIC expressed on CHO cells (human, UniProt P31995 43-323).
T1 construct: whole, on cells
T1 sequence (looked up): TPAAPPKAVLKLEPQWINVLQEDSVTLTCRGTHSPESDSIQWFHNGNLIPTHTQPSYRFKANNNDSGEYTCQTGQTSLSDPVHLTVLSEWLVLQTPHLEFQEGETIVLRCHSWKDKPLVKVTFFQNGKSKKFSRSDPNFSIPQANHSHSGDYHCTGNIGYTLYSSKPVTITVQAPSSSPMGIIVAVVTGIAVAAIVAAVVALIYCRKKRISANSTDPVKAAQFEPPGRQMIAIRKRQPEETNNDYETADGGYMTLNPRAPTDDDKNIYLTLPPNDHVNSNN
Briefly: FACS, CHO cells expressing FcγRIIC. On the procedure: FIGS. 1A-1W are charts showing binding activity of various IgG variants as indicated to different types of Fcγ receptors expressed on CHO-K1 cells at the various concentrations as indicated. The concentrations of each IgG variant, from left to right, are 0 μg/ml, 0.3 μg/ml, 1 μg/ml, 3 μg/ml, and 10 μg/ml in FIGS. 1A-1C, 1E-J, 1L-1M, 1P-1R, and 1T-1V. For FIGS. 1D, 1K, 10, 1S, and 1w the bars, from left to right, correspond to the following concentrations of IgG variant: 0.3 μg/ml, 1 μg/ml, 3 μg/ml, and 10 μg/ml.
For FACS analysis of the IgG mutants' binding to different FcγRs, FcγR overexpressing CHO cells were harvested using trypsin-EDTA and were suspended in cold staining buffer (3% BSA in PBS). Test IgG mutants, which were diluted in staining buffer, were added into the cells. The mixture was incubated 4° C. for 2 hours, and then washed twice with cold staining buffer and re-suspended in PE-labeled anti-human IgG followed by incubation at 4° C. for 2 hours. The mixture was washed twice with staining buffer and re-suspended in 2% PFA in PBS for FACS.

Assay [2] deals with T2, human FcRIIB/C protein (MednaBio, E1034) (human, UniProt P31994 43-217, limits assumed).
T2 construct: Bought as FcRIIB/C; also called FcγRIIB; CD32B
T2 sequence (looked up): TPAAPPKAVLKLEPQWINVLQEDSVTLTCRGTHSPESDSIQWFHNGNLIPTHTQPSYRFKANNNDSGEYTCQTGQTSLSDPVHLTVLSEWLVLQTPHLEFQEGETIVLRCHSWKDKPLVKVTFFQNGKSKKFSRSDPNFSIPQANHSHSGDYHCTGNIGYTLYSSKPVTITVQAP
The assay is described as follows: BLI. In a few lines: (§1)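 Binding was measured by biolayer interferometry on an Octet Red96 System. Commercial human Fc receptor proteins were loaded at 20 μg/mL onto anti-penta-HIS biosensors, which were then dipped into an 8-point 1:3 dilution series of test IgG starting at 300 nM in PBS with 0.1% BSA and 0.02% Tween-20, at pH 7.2 for Fcγ receptors and pH 6 for FcRn. Kd, kon and koff were obtained by global fitting, with data fitted to a 1:1 binding model.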

For assay [3], the target named is T3, human FcRIIIA-V158 protein (MednaBio, E1035) (human, UniProt P08637 17-208).
T3 construct: Bought; also called FcγRIIIA(V); FcgRIIIA(V)
The assay is described as follows: BLI. The method in brief: as §1
A general note: In BLI a coated tip is dipped into the sample, and binding shifts an interference pattern.

For assay [4], the target named is T4, human FcRI protein (MednaBio, E1031) (human, UniProt P12314 16-288, limits assumed).
T4 construct: Bought; loaded on anti-penta-HIS biosensors; also called FcγRI
The assay is described as follows: BLI. The method in brief:
as §1

Assay [5] has as its target T5, human FcRIIIB protein (MednaBio, E1037) (human, UniProt O75015 17-200).
T5 construct: Bought; also called FcγRIIIB; FcgRIIIB
Briefly: BLI. The method in brief:
as §1

Assay [6] addresses T6, human FcRIIA protein (MednaBio, E1033) (human, UniProt P12318 34-218, limits assumed).
T6 construct: Bought; also called FcγRIIA
T6 sequence (looked up): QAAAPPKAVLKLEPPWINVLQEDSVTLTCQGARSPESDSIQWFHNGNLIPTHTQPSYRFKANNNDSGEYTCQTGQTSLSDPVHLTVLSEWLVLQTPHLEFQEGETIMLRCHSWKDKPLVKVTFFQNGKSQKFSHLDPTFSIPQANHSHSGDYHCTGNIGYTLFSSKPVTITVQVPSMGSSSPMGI
Briefly: BLI. The method in brief:
as §1

The target in assay [7] is T7, human FcRn protein (MednaBio, E1032) (human, UniProt P55899 24-297; P61769 21-119).
T7 construct: Bought; assays at pH 6
Briefly: BLI. In a few lines: as §1

For assay [8], the target named is T8, human FcRIIIA-F158 protein (MednaBio, E1036) (human, UniProt P08637 17-208).
T8 construct: Bought; also called FcγRIIIA(F)
The assay is described as follows: BLI. The method in brief:
as §1

The target in assay [9] is T2, human FcRIIB/C protein (MednaBio, E1034). The assay is described as follows: BLI. The method in brief: as §1
This is another data set of the same source.

Assay [10] concerns the target T3, human FcRIIIA-V158 protein (MednaBio, …). Briefly: BLI. In a few lines: as §1
The source holds these as a separate data set.

The target of assay [11] is T4, human FcRI protein (MednaBio, E1031). The assay is described as follows: BLI. In a few lines:
as §1
This is another data set of the same source.

Assay [12] deals with T5, human FcRIIIB protein (MednaBio, E1037). Briefly: BLI. The method in brief: as §1
This is another data set of the same source.

Assay [13] addresses T6, human FcRIIA protein (MednaBio, E1033). The assay is described as follows: BLI. In a few lines: as §1
This is another data set of the same source.

In assay [14] the target is T7, human FcRn protein (MednaBio, E1032). Briefly: BLI. In a few lines:
as §1
The source holds these as a separate data set.

Assay [15] concerns the target T8, human FcRIIIA-F158 protein (MednaBio, …). The assay is described as follows: BLI. The method in brief:
as §1
This is another data set of the same source.

T5 sequence (O75015 17-200 limits assumed): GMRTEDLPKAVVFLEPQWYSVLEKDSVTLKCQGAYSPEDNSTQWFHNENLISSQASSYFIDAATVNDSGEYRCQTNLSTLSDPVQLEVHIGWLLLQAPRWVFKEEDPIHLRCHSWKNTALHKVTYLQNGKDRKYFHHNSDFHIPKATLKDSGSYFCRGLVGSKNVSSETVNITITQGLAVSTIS
T3 sequence (P08637 17-208 F176V): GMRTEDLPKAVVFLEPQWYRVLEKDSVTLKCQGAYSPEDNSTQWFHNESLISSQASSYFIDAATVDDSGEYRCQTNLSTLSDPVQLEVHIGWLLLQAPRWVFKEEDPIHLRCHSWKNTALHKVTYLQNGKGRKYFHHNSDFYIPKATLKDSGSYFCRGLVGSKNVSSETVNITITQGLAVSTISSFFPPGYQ
T7 sequence (P55899 24-297 limits assumed, form in doubt, chain 1 of 2): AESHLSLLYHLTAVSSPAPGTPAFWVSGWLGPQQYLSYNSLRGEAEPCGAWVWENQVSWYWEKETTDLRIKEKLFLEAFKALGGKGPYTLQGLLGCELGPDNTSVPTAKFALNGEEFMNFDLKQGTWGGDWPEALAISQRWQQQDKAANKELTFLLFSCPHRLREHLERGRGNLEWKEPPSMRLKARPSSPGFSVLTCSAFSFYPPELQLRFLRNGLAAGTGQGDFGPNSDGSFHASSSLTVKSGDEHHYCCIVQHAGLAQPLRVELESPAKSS
T7 sequence (P61769 21-119 limits assumed, form in doubt, chain 2 of 2): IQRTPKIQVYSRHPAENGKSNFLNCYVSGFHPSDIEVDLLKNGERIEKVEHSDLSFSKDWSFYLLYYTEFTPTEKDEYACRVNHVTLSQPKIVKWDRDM
T4 sequence (P12314 16-288 limits assumed): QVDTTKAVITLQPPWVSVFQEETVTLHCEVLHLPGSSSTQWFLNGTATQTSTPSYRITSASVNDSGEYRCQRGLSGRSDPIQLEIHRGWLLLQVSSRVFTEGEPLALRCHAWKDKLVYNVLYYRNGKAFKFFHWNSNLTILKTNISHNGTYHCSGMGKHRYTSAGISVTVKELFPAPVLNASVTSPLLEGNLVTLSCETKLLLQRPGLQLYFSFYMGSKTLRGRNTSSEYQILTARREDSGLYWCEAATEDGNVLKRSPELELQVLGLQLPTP
T8 sequence (P08637 17-208 limits assumed): as the sequence (P08637 17-208 F176V) above, with V160F counted along it

B1: anti-CD137 IgG1 with Fc variant G1m5 (antibody)
heavy: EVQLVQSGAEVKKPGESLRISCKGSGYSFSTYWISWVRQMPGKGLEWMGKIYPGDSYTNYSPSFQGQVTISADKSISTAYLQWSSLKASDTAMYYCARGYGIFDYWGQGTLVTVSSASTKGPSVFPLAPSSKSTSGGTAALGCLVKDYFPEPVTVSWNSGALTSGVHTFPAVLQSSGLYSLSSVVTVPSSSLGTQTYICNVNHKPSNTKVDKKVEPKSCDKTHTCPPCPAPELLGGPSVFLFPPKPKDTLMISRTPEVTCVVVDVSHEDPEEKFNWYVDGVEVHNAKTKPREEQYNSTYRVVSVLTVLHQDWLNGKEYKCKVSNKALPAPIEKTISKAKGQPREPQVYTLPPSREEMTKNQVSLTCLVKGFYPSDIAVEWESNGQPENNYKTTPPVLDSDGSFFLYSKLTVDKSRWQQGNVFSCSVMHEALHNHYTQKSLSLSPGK
light: SYELTQPPSVSVSPGQTASITCSGDNIGDQYAHWYQQKPGQSPVLVIYQDKNRPSGIPERFSGSNSGNTATLTISGTQAMDEADYYCATYTGFGSLAVFGGGTKLTVLGQPKAAPSVTLFPPSSEELQANKATLVCLISDFYPGAVTVAWKADSSPVKAGVETTTPSKQSNNKYAASSYLSLTPEQWKSHRSYSCQVTHEGSTVEKTVAPTECS
notes: copies: 2 + 2
As to B1, the binding result was “binds” in assay [1], “no binding (tested: 300 nM)” in assay [5] and “no binding (tested: 300 nM)” in [8]. Further, the Kd in [2] worked out at 640 nM; in assay [3], 290 nM; in assay [4] it was 1.6 nM; in assay [6], 670 nM; in assay [7], 22 nM. Also, the koff was 0.18 s⁻¹ in [2]; 0.073 s⁻¹ in assay [3]; 0.00047 s⁻¹ in assay [4]; 0.23 s⁻¹ in assay [6]; 0.0077 s⁻¹ in [7]. Also, the kon in assay [2] came out at 280000 M⁻¹ s⁻¹; in assay [3], 250000 M⁻¹ s⁻¹; in assay [4], 300000 M⁻¹ s⁻¹; in [6], 340000 M⁻¹ s⁻¹; in [7], 350000 M⁻¹ s⁻¹.

B2: anti-CD137 IgG1 with Fc variant G1m7 (antibody)
heavy: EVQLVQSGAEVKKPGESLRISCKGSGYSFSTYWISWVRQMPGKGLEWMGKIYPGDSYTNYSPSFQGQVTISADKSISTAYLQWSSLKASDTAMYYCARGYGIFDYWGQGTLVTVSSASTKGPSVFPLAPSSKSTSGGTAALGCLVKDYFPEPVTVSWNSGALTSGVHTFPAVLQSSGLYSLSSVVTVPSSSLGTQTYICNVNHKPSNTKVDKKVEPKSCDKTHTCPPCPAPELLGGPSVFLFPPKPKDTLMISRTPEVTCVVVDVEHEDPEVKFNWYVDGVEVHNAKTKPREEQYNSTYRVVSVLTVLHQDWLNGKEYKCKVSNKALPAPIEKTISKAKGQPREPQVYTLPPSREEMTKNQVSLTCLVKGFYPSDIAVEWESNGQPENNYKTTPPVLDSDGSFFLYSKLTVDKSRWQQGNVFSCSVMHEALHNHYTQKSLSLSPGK
light: B1 light
notes: copies: 2 + 2
For the molecule B2, the values for the binding result in assay [1] and in [5] were “binds” and “no binding (tested: 300 nM)”, respectively. Besides, the Kd in assay [2] came to 110 nM; in assay [3], 87 nM; in assay [4], 2.5 nM; in assay [6], 290 nM; in assay [7], 15 nM; in assay [8], 140 nM. Further, the koff in assay [2] turned out to be 0.032 s⁻¹; in [3], 0.039 s⁻¹; in [4] it was 0.0016 s⁻¹; in [6], 0.11 s⁻¹; in assay [7] it was 0.01 s⁻¹; in assay [8], 0.05 s⁻¹. Further, the kon came to 280000 M⁻¹ s⁻¹ in assay [2]; 440000 M⁻¹ s⁻¹ in assay [3]; 630000 M⁻¹ s⁻¹ in [4]; 380000 M⁻¹ s⁻¹ in assay [6]; 670000 M⁻¹ s⁻¹ in assay [7]; 350000 M⁻¹ s⁻¹ in assay [8].

B3: anti-CD137 IgG1 with Fc variant G1m29 (antibody)
heavy: EVQLVQSGAEVKKPGESLRISCKGSGYSFSTYWISWVRQMPGKGLEWMGKIYPGDSYTNYSPSFQGQVTISADKSISTAYLQWSSLKASDTAMYYCARGYGIFDYWGQGTLVTVSSASTKGPSVFPLAPSSKSTSGGTAALGCLVKDYFPEPVTVSWNSGALTSGVHTFPAVLQSSGLYSLSSVVTVPSSSLGTQTYICNVNHKPSNTKVDKKVEPKSCDKTHTCPPCPAPELLGPSVFLFPPKPKDTLMISRTPEVTCVVVDVEHEDPEVKFNWYVDGVEVHNAKTKPREEQYNSTYRVVSVLTVLHQDWLNGKEYKCKVSNKAFPAPIEKTISKAKGQPREPQVYTLPPSREEMTKNQVSLTCLVKGFYPSDIAVEWESNGQPENNYKTTPPVLDSDGSFFLYSKLTVDKSRWQQGNVFSCSVMHEALHNHYTQKSLSLSPGK
light: B1 light
notes: copies: 2 + 2
B3: the Kd is 46 nM in assay [9], 37 nM in assay [11], 530 nM in assay [13] and 17 nM in assay [14]. Besides, the koff turned out to be 0.011 s⁻¹ in [9], 0.0098 s⁻¹ in assay [11], 0.14 s⁻¹ in assay [13] and 0.013 s⁻¹ in [14]. For the same molecule, the kon was 250000 M⁻¹ s⁻¹ in assay [9], 260000 M⁻¹ s⁻¹ in assay [11], 260000 M⁻¹ s⁻¹ in [13] and 760000 M⁻¹ s⁻¹ in assay [14]. Also, the binding result in assay [10], in [12] and in assay [15] was “no binding (tested: 300 nM)” in each case.

B4: anti-CD137 IgG1 with Fc variant G1m8 (antibody)
heavy: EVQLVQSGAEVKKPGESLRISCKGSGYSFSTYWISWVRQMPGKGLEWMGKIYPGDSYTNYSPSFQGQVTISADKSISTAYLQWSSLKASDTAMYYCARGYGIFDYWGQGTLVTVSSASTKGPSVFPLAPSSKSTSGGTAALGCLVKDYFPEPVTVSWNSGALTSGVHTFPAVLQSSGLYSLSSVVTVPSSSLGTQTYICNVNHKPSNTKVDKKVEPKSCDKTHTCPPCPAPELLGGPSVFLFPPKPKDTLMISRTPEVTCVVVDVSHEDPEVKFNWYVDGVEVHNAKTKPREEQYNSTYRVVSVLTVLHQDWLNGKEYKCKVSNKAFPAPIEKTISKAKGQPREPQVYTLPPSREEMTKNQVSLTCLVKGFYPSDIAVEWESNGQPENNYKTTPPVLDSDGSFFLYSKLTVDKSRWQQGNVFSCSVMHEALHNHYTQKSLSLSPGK
light: B1 light
notes: copies: 2 + 2
On to B4, for which the binding result is recorded as “binds” in assay [1] and “no binding (tested: 300 nM)” in assay [5]. Besides, the Kd in [2] amounted to 420 nM; in assay [3], 230 nM; in assay [4], 2.5 nM; in [6] it was 270 nM; in assay [7] it was 16.5 nM; in assay [8] it was 260 nM. Further, the koff came to 0.11 s⁻¹ in assay [2]; 0.074 s⁻¹ in assay [3]; 0.0016 s⁻¹ in assay [4]; 0.17 s⁻¹ in assay [6]; 0.0111 s⁻¹ in assay [7]; 0.057 s⁻¹ in [8]. For the same molecule, the kon came to 270000 M⁻¹ s⁻¹ in [2]; 320000 M⁻¹ s⁻¹ in assay [3]; 630000 M⁻¹ s⁻¹ in assay [4]; 610000 M⁻¹ s⁻¹ in assay [6]; 673000 M⁻¹ s⁻¹ in [7]; 220000 M⁻¹ s⁻¹ in [8].

B5: anti-CD137 IgG1 with Fc variant G1m18 (antibody)
heavy: EVQLVQSGAEVKKPGESLRISCKGSGYSFSTYWISWVRQMPGKGLEWMGKIYPGDSYTNYSPSFQGQVTISADKSISTAYLQWSSLKASDTAMYYCARGYGIFDYWGQGTLVTVSSASTKGPSVFPLAPSSKSTSGGTAALGCLVKDYFPEPVTVSWNSGALTSGVHTFPAVLQSSGLYSLSSVVTVPSSSLGTQTYICNVNHKPSNTKVDKKVEPKSCDKTHTCPPCPAPELLSVFLFPPKPKDTLMISRTPEVTCVVVDVSHEDPEVKFNWYVDGVEVHNAKTKPREEQYNSTYRVVSVLTVLHQDWLNGKEYKCKVSNKAFPAPIEKTISKAKGQPREPQVYTLPPSREEMTKNQVSLTCLVKGFYPSDIAVEWESNGQPENNYKTTPPVLDSDGSFFLYSKLTVDKSRWQQGNVFSCSVMHEALHNHYTQKSLSLSPGK
light: B1 light
notes: copies: 2 + 2
As to B5, the Kd in assay [9] is 670 nM; in [11], 260 nM; in [13], 140 nM; in [14] it was 12.8 nM. Also, the koff is 0.39 s⁻¹ in assay [9], 0.21 s⁻¹ in assay [11], 0.029 s⁻¹ in [13] and 0.00803 s⁻¹ in assay [14]. The kon in assay [9] amounted to 580000 M⁻¹ s⁻¹; in assay [11], 830000 M⁻¹ s⁻¹; in [13] it was 200000 M⁻¹ s⁻¹; in assay [14], 630000 M⁻¹ s⁻¹. The binding result in [10], in assay [12] and in assay [15] was “no binding (tested: 300 nM)” each time.

Values taken from patent US20200392227A1 (LYVGEN BIOPHARMA, published 2020).
